From the supplement of paper PMC9170038

Columns and labels:
MS2 coat protein [1] = assay: apparent KD of MS2 coat protein, switch OFF state (with FMN for OFF switches, without FMN for ON switches); designed switch direction (-1 OFF switch, 1 ON switch): 1; higher = weaker reporter binding; details: FMN input: 0 or 200 uM; Eterna round: R93 (includes R88 designs)
Method in brief: (§1)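 Designed RNA switches were made by on-chip transcription from Illumina sequencing clusters and then titrated with SNAP-549-labelled MS2 coat protein. Twofold steps ran from 0.7 or 1.5 nM to 3 µM, each lasting 0.8–1.5 h early and 10–20 min late, in 100 mM Tris-HCl pH 7.5, 80 mM KCl, 4 mM MgCl2, without or with constant ligand. Apparent KD is the per-design median of normalised cluster binding-curve fits.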

MS2 coat protein [2] = assay: apparent KD of MS2 coat protein, switch ON state; designed switch direction (-1 OFF switch, 1 ON switch): 1; higher = weaker reporter binding; details: FMN input: 0 or 200 uM; Eterna round: R93 (includes R88 designs)
Method in brief: as §1

Sequence	apparent KD of MS2 coat protein (MS2 coat protein [1])	apparent KD of MS2 coat protein (MS2 coat protein [2])
AAAAAAUAAAAAAAGGAUAUAAUGCUACAGACAUGAGGAUCACCCAUGUAGGUAGCAAAAAUAAAAAAGAAGGAAAAAUAAAAAA [SS2: MS2 31]	13.1 nM	11.4 nM
CGAAAGGAGAGAGAGGAUAUCCAAAGGAAAACAUGAGGAUCACCCAUGUAGAAGGUAGGAGAUUGGGAGAAGGCUCAAGAGAGAU [salish99-ss2-147]	34.3 nM	32.1 nM
AUAAUAAGAAGCUAGGAUAUGCUAAAGUAAACAUGAGGAUCACCCAUGUAAAGAAAAAAACUCAUGUAGAAGGAGCAGAAAUAAA [moonwalk 6]	106 nM	99.1 nM
GAAAAACAUGAGGAUCACCCAUGUGAGAAUAUGGGAGGAUAUACGAAGACGAGAGUCAAAGUAGAAGGCCUAAAAG [Mat - Same State 1 - Eli mod - 30]	82.9 nM	27.2 nM
GGAAGACAUGAGGAUCACCCAUGUGGGAUUAUGGGAGGAUAUACAAAGACGAGAGUCAGAGUAGAAGGCCUAGGAG [salish99-ss1-122(!)]	107 nM	61.1 nM
AAUAAACAUGAGGAUCACCCAUGUAGAAAUAUGGGAGGAUAUACAAAGACGAAAGUCAAAGUAGAAGGCCUAAUAA [Mat - Same State 1 - Mod - D153]	58.5 nM	18 nM
GAAAAACAUGAGGAUCACCCAUGUGGAAAUAUGGGAGGAUAUACAAAGACGGAAGUCAAAGUAGAAGGCCUAAAAG [Mat - Same State 1 - Eli mod - D10]	119 nM	26.5 nM
AAAAGACAUGAGGAUCACCCAUGUGAAAACGUAGGAGGAUAUGUCUGGAAACCAGACUGGACAGAAGGCCUGUGUC [SS1 - 32]	33.1 nM	26.7 nM
AUGAAUAGCAUCGAGGAUAUCCAGUCAUGAACAUGAGGAUCACCCAUGUAAGAGAGAGUAUAAUGGGAGAAGGCGAGUAAUCGAU [JR_SS002_Sub1703]	105 nM	40.3 nM
AGCGAACAUGAGGAUCACCCAUGUCCCGCGAAUCAAGGAUAUGGGCAGAUGAGUCCUGCGCCAGAAGGUGAGUAAA [Rigeesar]	132 nM	49.6 nM
AAGAAACAUGAGGAUCACCCAUGUAGAAACAUGGGAGGAUAUACAAAGACGAAAGUCAAAGUAGAAGGCCUAAAAA [Mat - Same State 1 - Mod - D165]	141 nM	88.6 nM
AACCAACAUGAGGAUCACCCAUGUCAACCCAAGCGAGGAUAUCCGAGAAUAACAAUGGGAGGAGAAGGCGCGACCU [ss1]	39 nM	38.1 nM
AAACCACAUGAGGAUCACCCAUGUCCAAAAAAACAAGGAUAUAUAAAAAAAAAAAAAAAAAUAGAAGGUGUAAAAA [<insert title here>]	113 nM	75.5 nM
GACGAACAUGAGGAUCACCCAUGUAAAAACGUACAAGGAUAUGUGUGGAAACCGUACUAUACAGAAGGUGUCUGUC [SS1 - 96]	38.6 nM	37.3 nM
AGAAAGAAAAGAGAGGAUAUCUAAAAGAAAACAUGAGGAUCACCCAUGUAAAAGAAAAGAAAAUGGGAGAAGGCUUAUGAGAAAG [JL Skelter Mod 8 In the Red]	82 nM	107 nM
UUACAGCACAGGUAGGAUAUGUAGGGUGGUACAUGAGGAUCACCCAUGUAUCCACCCUUCGAAAGGCAGAAGGGCCUGUCGCCGC [Leanisqube]	15 nM	13.1 nM
AACAAUCUAUCUGAGGAUAUCAUGACAAAGACAUGAGGAUCACCCAUGUACCAGGAAACUGGUUAUGAGAAGGCAGAUAGAUUGA [SS2: 1117]	18.8 nM	11.5 nM
AUAUAUAUAAGGAAGGAUAUCUUAGAAAAAACAUGAGGAUCACCCAUGUAAAUAAAGAAUAAAUGGGAGAAGGUCCAUAUAUAUA [77%, More Tesla, 10]	109 nM	15.1 nM
AUAAAAUAAAGUCAGGAUAUCUAUAAUAAAACAUGAGGAUCACCCAUGUUAAAAAAAAGAUCAUGGGAGAAGGGACAAAAUAAAU [SS2 M 32]	28.3 nM	27 nM
CGAAAGUAUGCACAGGAUAUGUACAGGCUAACAUGAGGAUCACCCAUGUGAAAAUGGACCAUGUCGCAGAAGGGUGCCCUCCCGA [Mageor]	40.2 nM	22.1 nM
AAGUCACAUGAGGAUCACCCAUGUCGUAAACGAUGAGGAUAUAGGAAAAAAAAAAAAAAACUAGAAGGUAUAACAA [SameState1-01]	38.5 nM	35 nM
GAAAAACAUGAGGAUCACCCAUGUAGAAAUAUGGGAGGAUAUACAAAGACGAAAGUCAAAGUAGAAGGCCUAAAGA [Mat - Same State 1 - Eli mod - 34]	91.1 nM	15.5 nM

Sequence	apparent KD of MS2 coat protein (MS2 coat protein [1])	apparent KD of MS2 coat protein (MS2 coat protein [2])
GAGAUACAUGAGGAUCACCCAUGUUGAUACAUGGGAGGAUAUACAAGGUCGAAAGAUAAGGUAGAAGGCCUAAAAG [LROPPY Same State 1 - v04_deltaG=3.5]	15.7 nM	47.1 nM
CGAAAGGAGAGAGAGGAUAUCCAAAGGAAAACAUGAGGAUCACCCAUGUAGAAGGUAGGAGAUUGGGAGAAGGCUCAAGAGAGUA [salish99-ss2-149]	36.3 nM	25.7 nM
AAAAUACAUGAGGAUCACCCAUGUGAAAAUAUGGGAGGAUAUACCGAAAAAAAAAAAAAGGUAGAAGGCCCAAAAA [SS! 1 MT 5]	69.2 nM	17.1 nM
AAAGAAAAACUAGAGGAUAUCCGAAUGGUAACAUGAGGAUCACCCAUGUGAAGAAAGGAACAUGAGGAGAAGGCUAGAAGAAAAA [JL Nando mod 10]	23.4 nM	18.8 nM
AUAAAACAUGAGGAUCACCCAUGUAGAAAUAUGGGAGGAUAUACUAGAUCGAAAGAUCUAGUAGAAGGCCUUUAAG [JL Mod of Eli 4]	49.9 nM	29.6 nM
AGCGAACAUGAGGAUCACCCAUGUGAAAAACAUAGAGGAUAUGUCGCAUGAGUGUAAAAGACAGAAGGCUAUCGCA [Mod of Nando]	116 nM	38.8 nM
UAUCCGGCAGUGUAGGAUAUGUUGUAGUCAACAUGAGGAUCACCCAUGUGGAUUAUAUAAGAUUCACAGAAGGGCACUGCAUUGC [Geiner]	74.1 nM	87.8 nM
AACAUACAUGAGGAUCACCCAUGUUCCGGCAGGACAGGAUAUACAUCGAAAGUGUUAUAAGUAGAAGGGUCAUAAA [JR_SS001_Sub012]	66.5 nM	56.7 nM
AAUGAACAUGAGGAUCACCCAUGUUCUAAUAGUUGAGGAUAUAUGGGUGAAAAUAGCACAGUAGAAGGCGAGUGUA [SameState1 Malc#17]	262 nM	408 nM
AAAAAACAUGAGGAUCACCCAUGUAAUACAACAUCAGGAUAUUGAUUUUACUAUGUAUUGCAAGAAGGGAUGAAAA [Same State 1.3a (Same State 1 - Omei 2 )]	45.2 nM	71.2 nM
AAUAUACAUGAGGAUCACCCAUGUUUUAAUAACUCAGGAUAUACGGGUGAAAACAGCAUAGUAGAAGGGAGAAAAA [SameState1 Malc#2]	113 nM	44 nM
AGGAAACAUGAGGAUCACCCAUGUAUAAAAUAGGGAGGAUAUACUAAGACGAAAGUCAUAGUAGAAGGUCCAAAAA [76%, Meechl, 13]	23.4 nM	17.9 nM
GAAAAACAUGAGGAUCACCCAUGUAAGAUAAACACAGGAUAUGCGAAAAUAAAUAAAGAAGCAGAAGGGUGAAGAA [Mat - Same State 1 - Tesla mod - 73]	26.5 nM	11.1 nM
AAUAAUUAUAUGGAGGAUAUCCGUAAUAAGACAUGAGGAUCACCCAUGUAAUAAGGUUAAAUAAAGGAGAAGGCCAAGGGUGAAA [JR_SS002_Sub004]	344 nM	129 nM
AAAUAAAGGACUAAGGAUAUAUCACAUGAAACAUGAGGAUCACCCAUGUAAUAAUACAAAGGGUGAUAGAAGGUAGUCCACAAACA [Pariah 5 (MS2 Riboswitches - Same State 2)]	37.1 nM	14.9 nM
AGAAAUAAAAGAGAGGAUAUGCAAAAGAUAACAUGAGGAUCACCCAUGUAAAAGAAAAUAAAUGGGUAGAAGGCUCAAAAUAAGA [Jieux modified]	64.9 nM	86.4 nM
AGAAGACAUGAGGAUCACCCAUGUGGGAUUAUGGGAGGAUAUACAAAGACGAGAGUCAGAGUAGAAGGCCUAGGAA [salish99-ss1-112(!!!!!)]	70.5 nM	29 nM
GAAAUACAUGAGGAUCACCCAUGUUAGGUGGGUCAAGGAUAUUGAGAUAAAUAAAAAUCUCGAGAAGGUGAAUAAA [JR_SS001_Sub202]	199 nM	87.7 nM
AAAGACGUGCAUCAGGAUAUGUUCCGAGACACAUGAGGAUCACCCAUGUGGACGAAGUCUCGGGCACAGAAGGGAUCACUCAUAA [Latibe]	21.4 nM	15.4 nM
GUGUAAAGAAUCGAGGAUAUCCAAAAAAGCACAUGAGGAUCACCCAUGUAAGAGAGAGAAUAAUGGGAGAAGGCGAGUUAUCGGU [JR_SS002_Sub1712]	64.1 nM	18.1 nM
AAAAAACAUGAGGAUCACCCAUGUAAAAAAAUCGCAGGAUAUACGGUCGCGAAAGCGACCGUAGAAGGGCGAUCCU [Louisiana 3 - Jieux - Same State 1]	75.3 nM	59.1 nM
